Measurements: the supplement of paper PMC9170038

Tested on: MS2 coat protein
Test: apparent KD of MS2 coat protein; designed switch direction (-1 OFF switch, 1 ON switch): -1; higher = weaker reporter binding
Outline: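 Stalled E. coli RNA polymerase transcribed designed RNA switches on Illumina chips, which were then titrated with SNAP-549-labelled MS2 coat protein, doubling from 0.7 or 1.5 nM to 3 µM. Steps lasted from 0.8–1.5 h at the lowest concentration to 10–20 min at the highest. The apparent KD is each design's median over clusters of curve-fitted normalised fluorescence.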

[1] = Eterna round: R95, input ligand: FMN 200 uM
[2] = Eterna round: R95, input ligand: microRNA oligo, concentration not stated
[3] = Eterna round: R95, input ligand: none
[4] = input ligand: microRNA oligo, concentration not stated

Sequence	apparent KD of MS2 coat protein (input ligand: FMN 200 uM)	apparent KD of MS2 coat protein (input ligand: none)	further results
AGUUGUGUCAAGGAUAUGCAGUCUAACGACGGAGCAGAAGGUGACACUUGAGGAUCACCCAAGUGAACCAAAAU [Bisoreis] (Eterna round: R97, puzzle: Exclusion 6)	393 nM	57.5 nM	
AGGCUGUCAGGAUAUCUGCGCCGCUGUACGCGGCGUUAUAAAGAGAAGGGACAUGAGGAUCACCCAUGUCCUCA [EX4 B.14] (Eterna round: R97, puzzle: Exclusion 4)	109 nM	19.5 nM	
AAAUAACAAGCAGGAUCCUACAUGAGGAUCACCCAUGUGCUCGUCUUAUAAAGUACUAUCACGAAAGUGAUAGUACA [Sensor 3, v1 - 14] (puzzle: Sensor v3, turn-off variant 1)			apparent KD of MS2 coat protein [1]: 434 nM; apparent KD of MS2 coat protein [2]: 84.6 nM; apparent KD of MS2 coat protein [3]: 363 nM
AGCUAGAUAGGAUAUGCCCGAGAUAACAUGAGGAUCACCCAUGUGACCGAAUCUAAUCUAGCAGAAGGGUUUAGGA [Mod of ViennaUCT 16 - Jieux - Exclusion 5] (Eterna round: R97, puzzle: Exclusion 5)	15.4 nM	15.1 nM	
AAAAAGCGAGGAUAUACAUGAGGAUCACCCAUGUGAGGGCACCGCGGGCGCGGGACCGGUAGAAGGCGCAAAAA [Exc;s3-II] (puzzle: Exclusion 3)			apparent KD of MS2 coat protein [1]: 33.6 nM; apparent KD of MS2 coat protein [2]: 24.1 nM; apparent KD of MS2 coat protein [3]: 38.5 nM
AUUAUAUAGGAAGGAUAUAGAAUAUUAUUUUAACAUGAGGAUCACCCAUGUAACCUUAUGUGUAGCUAGAAGGUCCAUUUAUUA [Title] (Eterna round: R96, puzzle: Exclusion NG 2)			apparent KD of MS2 coat protein [4]: 95.6 nM
CUUCGUAUAGAGGAUAUAGGAUACUACGGUGUCCUAGAAGGCUGUACAUGAGGAUCACCCAUGUACUUCAGAUC [Exclusion 6 - B - 14:a] (puzzle: Exclusion 6)			apparent KD of MS2 coat protein [2]: 11.5 nM
GUCGUACAUGAGGAUCACCCAUGUGAGGAUAUAGGUAGCAACCAGAAAUGGUUGCUACCUAGAAGGCGCAUGAU [Malcxlusion 10 - Jieux - Exclusion 1] (Eterna round: R97, puzzle: Exclusion 1)	529 nM	104 nM	
UUGCAGUCAUCAGGAUAUAGUAUUACGGCCAUUUAUAUUUUCAUACAUGAGGAUCACCCAUGUCGCUAGAAGGGAUUAUCGAUU [Exclusion NG 2] (Eterna round: R96, puzzle: Exclusion NG 2)			apparent KD of MS2 coat protein [4]: 34.5 nM
GUCAGCUCGUCAGGAUAUACAUCACUGCUUCGGCAGUGUAUUAAGAUCACAUGAGGAUCACCCAUGUAGAAGGGACGAGCUGAC [ENG2/2-B1] (Eterna round: R96, puzzle: Exclusion NG 2)	269 nM	21.9 nM	apparent KD of MS2 coat protein [4]: 21.2 nM
AAACCUAGUCUAGGAUAUGGUGAGAGUUUGUCGGUGAGUACAUGAGGAUCACCCAUGUACGCUUGCUAGAAGGAGACAGGCUCG [Eternabot solution 37] (Eterna round: R96, puzzle: Exclusion NG 2)	13.7 nM	14.6 nM	apparent KD of MS2 coat protein [4]: 11.5 nM
CUAGUAUAUCAGGAUAUGAUAUUGUGUAGUAUAUCAGAAGGGAUGACAUGAGGAUCACCCAUGUUAUGGGAUGA [JR_Ex6_Sub048] (Eterna round: R97, puzzle: Exclusion 6)	273 nM	121 nM	
CCACGUCUGCAGGAUAUCAGAUUGUAAGAUCGAUGAGAAGGGCAGACAUGAGGAUCACCCAUGUCCGCCACCAA [EX6 C.10] (Eterna round: R97, puzzle: Exclusion 6)	20.6 nM	20.6 nM	
GCGUGGACUGAGGAUAUCCGAACGGUGCACGGAGGAGAAGGUAGGACAUGAGGAUCACCCAUGUGAACCUAGAU [Ceinormaat] (Eterna round: R97, puzzle: Exclusion 6)	20.6 nM	19.8 nM	
